Source: patent US20220242962A1 (APTEVO RESEARCH AND DEVELOPMENT, published 2022)

Target: T1, Recombinant FcRn/b2M protein (human, UniProt P55899 24-297; P61769 21-119, limits assumed)
T1 construct: also called hFcRn/b2M; neonatal Fc receptor
Assay: SPR pH 6.0, FcRn/b2M immobilized, two-state reaction model
Method: Recombinant FcRn/b2M protein was generated via transient transfection of HEK-293 cells with a bi-cistronic vector containing the genes for both FcRn and […]. The complex was purified using IMAC chromatography and subsequently buffer exchanged into IMAC elution buffer after verifying purity of the IMAC eluate by analytical SEC. hFcRn/b2M at 10 μg/ml in 10 mM sodium acetate (pH 4.5) was immobilized on a CM5 chip by direct amine coupling chemistry to a level of ˜600 RU. A reference flow cell was left blank.
Different concentrations of the Fc variant protein (5-80 nM by 2-fold dilutions in pH 6.0 running buffer) including running buffer as blank were injected in randomized order at 30 μL/min for 180 seconds followed by a 120 second dissociation period.
Sensorgrams obtained from kinetic SPR measurements were analyzed by the double subtraction method. The signal from the reference flow cell was subtracted from the analyte binding response obtained from flow cell with immobilized ligands. Buffer reference was subtracted from analyte binding responses, and the final double-referenced data were analyzed with Biacore T200 Evaluation software (2.0, GE), globally fitting data to derive kinetic parameters. All sensorgrams were fitted using two-state reaction model, as described in Weirong Wang et al, DrugMetab Dispos.: 39(9): 1469-77 (2011).

Kd: 20 nM
B1: TSC 1005 (other)
chain: EPKSSDKTHTCPPCPAPPVAAPSVFLFPPKPKDTLMISRTPEVTCVVVDVSHEDPEVKFNWYVDGVEVHNAKTKPREEQYNSTYRVVSVLTVLHQDWLNGKEYKCAVSNKALPAPIEKTISKAKGQPREPQVYTLPPSRDELTKNQVSLTCLVKGFYPSDIAVEWESNGQPENNYKTTPPVLDSDGSFFLYSKLTVDKSRWQQGNVFSCSVMHEALHNHYTQKSLSLSPG
notes: IgG1 Fc with E233P, L234V, L235A, deletion of G236, G237A, K322A (EU); also called PVAdel TSC01005
